Laboratory results reported in PMC9482650, “Quantitative fragmentomics allow affinity mapping of interactomes” (Nature Communications, 2022).

T1: DLG3_2, Q92796
T1 sequence (Q92796 221-321, limits assumed, looked up): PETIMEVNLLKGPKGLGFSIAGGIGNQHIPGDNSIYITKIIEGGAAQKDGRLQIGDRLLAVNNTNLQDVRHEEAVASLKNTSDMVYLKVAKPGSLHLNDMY

T2: SNTG2, Q9NY99
T2 sequence (Q9NY99 68-166, limits assumed, looked up): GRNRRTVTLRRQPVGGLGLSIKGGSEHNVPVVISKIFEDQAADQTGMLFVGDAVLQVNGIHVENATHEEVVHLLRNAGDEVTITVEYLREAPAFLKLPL

T3: MPP2, Q14168
T3 sequence (Q14168 180-250, limits assumed, looked up): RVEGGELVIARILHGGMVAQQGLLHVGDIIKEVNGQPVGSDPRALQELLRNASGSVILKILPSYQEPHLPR

T4: LNX2_3, Q8N448
T4 sequence (Q8N448 463-564, limits assumed, looked up): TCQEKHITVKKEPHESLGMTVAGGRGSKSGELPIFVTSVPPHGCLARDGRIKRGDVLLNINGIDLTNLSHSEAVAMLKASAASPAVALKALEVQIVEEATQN

T5: CARD11, Q9BXL7
T5 sequence (Q9BXL7 662-765, limits assumed, looked up): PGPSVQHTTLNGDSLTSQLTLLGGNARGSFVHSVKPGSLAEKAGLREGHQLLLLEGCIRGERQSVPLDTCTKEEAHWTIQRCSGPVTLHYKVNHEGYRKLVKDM

T6: DLG3_3, Q92796
T6 sequence (Q92796 374-475, limits assumed, looked up): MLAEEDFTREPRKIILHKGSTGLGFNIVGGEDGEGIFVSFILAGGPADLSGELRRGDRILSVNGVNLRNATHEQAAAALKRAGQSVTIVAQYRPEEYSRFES

T7: SIPA1L2, Q9P2F8
T7 sequence (Q9P2F8 945-1036, limits assumed, looked up): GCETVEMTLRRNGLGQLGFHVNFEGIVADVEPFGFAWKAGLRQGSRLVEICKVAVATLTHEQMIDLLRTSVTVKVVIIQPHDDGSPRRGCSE

T8: GRIP1_2, Q9Y3R0
T8 sequence (Q9Y3R0 145-248, limits assumed, looked up): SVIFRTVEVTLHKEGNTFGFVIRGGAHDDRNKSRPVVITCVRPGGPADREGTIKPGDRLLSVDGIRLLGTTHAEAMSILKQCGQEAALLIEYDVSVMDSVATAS

T9: MPP6, Q9NZW5
T9 sequence (Q9NZW5 125-219, limits assumed, looked up): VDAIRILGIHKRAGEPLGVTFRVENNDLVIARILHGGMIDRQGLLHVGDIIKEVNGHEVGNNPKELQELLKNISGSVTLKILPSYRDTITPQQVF

T10: RHPN1, Q8TCX5
T10 sequence (Q8TCX5 508-602, limits assumed, looked up): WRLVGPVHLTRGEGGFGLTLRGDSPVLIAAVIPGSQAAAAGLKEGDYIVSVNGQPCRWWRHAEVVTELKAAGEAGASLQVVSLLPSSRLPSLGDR

T11: MPP7, Q5T2T1
T11 sequence (Q5T2T1 134-230, limits assumed, looked up): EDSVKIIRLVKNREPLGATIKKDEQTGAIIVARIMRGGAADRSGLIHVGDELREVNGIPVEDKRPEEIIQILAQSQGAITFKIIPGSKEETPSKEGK


How the values were obtained:
Assay in all cases: holdup assay
Parameters in all cases: key: below the threshold = too weak to quantify, mostly under pKd 3.1 to 4
Conditions in all cases: plain residues with an end cap or a label only (N-terminal biotin on a linker: ado-ado)
IL16_4, Q14005 = biological target: IL16_4, Q14005
DLG3_2, Q92796 = biological target: T1, DLG3_2, Q92796
SNTG2, Q9NY99 = biological target: T2, SNTG2, Q9NY99
PTPN3, P26045 = biological target: PTPN3, P26045
MPP2, Q14168 = biological target: T3, MPP2, Q14168
FRMPD2_2, Q68DX3 = biological target: FRMPD2_2, Q68DX3
GRIP2_5, Q9C0E4 = biological target: GRIP2_5, Q9C0E4
LNX2_3, Q8N448 = biological target: T4, LNX2_3, Q8N448
TJP2_1, Q9UDY2 = biological target: TJP2_1, Q9UDY2
CARD11, Q9BXL7 = biological target: T5, CARD11, Q9BXL7
PDLIM1, O00151 = biological target: PDLIM1, O00151
SCRIB_1, Q14160 = biological target: SCRIB_1, Q14160
NHERF4_1, Q86UT5-2 = biological target: NHERF4_1, Q86UT5-2
SCRIB_3, Q14160 = biological target: SCRIB_3, Q14160
GRIP2_7, Q9C0E4 = biological target: GRIP2_7, Q9C0E4
GRIP2_4, Q9C0E4 = biological target: GRIP2_4, Q9C0E4
GIPC2, Q8TF65 = biological target: GIPC2, Q8TF65
DLG3_3, Q92796 = biological target: T6, DLG3_3, Q92796
SIPA1L2, Q9P2F8 = biological target: T7, SIPA1L2, Q9P2F8
GRIP1_2, Q9Y3R0 = biological target: T8, GRIP1_2, Q9Y3R0
NOS1, P29475 = biological target: NOS1, P29475
MPP6, Q9NZW5 = biological target: T9, MPP6, Q9NZW5
RHPN1, Q8TCX5 = biological target: T10, RHPN1, Q8TCX5
ARHGEF12, Q9NZN5-2 = biological target: ARHGEF12, Q9NZN5-2
MPP7, Q5T2T1 = biological target: T11, MPP7, Q5T2T1
Inadl_4, Q8NI35 = biological target: Inadl_4, Q8NI35
Sequence of Inadl_4, Q8NI35 (Q8NI35 547-651): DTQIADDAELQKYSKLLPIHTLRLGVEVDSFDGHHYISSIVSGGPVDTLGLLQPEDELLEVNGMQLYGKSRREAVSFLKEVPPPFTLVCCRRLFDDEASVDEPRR

Sequence of ARHGEF12, Q9NZN5-2 (Q9NZN5 other isoform, or with tags, fused parts or gaps): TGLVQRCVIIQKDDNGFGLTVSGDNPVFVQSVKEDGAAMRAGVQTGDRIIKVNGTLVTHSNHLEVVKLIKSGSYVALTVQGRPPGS
Sequence of GRIP2_4, Q9C0E4 (Q9C0E4 446-548): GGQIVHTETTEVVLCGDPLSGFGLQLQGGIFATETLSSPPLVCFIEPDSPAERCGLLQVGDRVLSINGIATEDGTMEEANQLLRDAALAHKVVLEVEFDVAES
Sequence of NHERF4_1, Q86UT5-2 (Q86UT5 other isoform, or with tags, fused parts or gaps): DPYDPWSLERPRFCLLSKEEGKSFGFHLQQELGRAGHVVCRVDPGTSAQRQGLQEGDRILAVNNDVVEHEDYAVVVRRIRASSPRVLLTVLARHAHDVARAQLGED
Sequence of SCRIB_3, Q14160 (Q14160 999-1103): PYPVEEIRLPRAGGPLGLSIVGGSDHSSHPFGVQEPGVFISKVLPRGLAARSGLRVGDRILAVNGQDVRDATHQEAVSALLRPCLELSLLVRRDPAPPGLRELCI
Sequence of TJP2_1, Q9UDY2 (Q9UDY2 24-128): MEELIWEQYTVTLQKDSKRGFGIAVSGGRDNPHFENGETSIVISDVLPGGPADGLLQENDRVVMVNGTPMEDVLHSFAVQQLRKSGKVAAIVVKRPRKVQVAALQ
Sequence of PTPN3, P26045 (P26045 505-587): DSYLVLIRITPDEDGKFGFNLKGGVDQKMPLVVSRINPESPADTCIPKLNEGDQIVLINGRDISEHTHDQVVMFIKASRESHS
Sequence of GRIP2_7, Q9C0E4 (Q9C0E4 934-1023): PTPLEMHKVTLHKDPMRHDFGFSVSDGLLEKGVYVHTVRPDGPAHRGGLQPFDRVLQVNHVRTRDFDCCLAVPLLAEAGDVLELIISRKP
Sequence of GRIP2_5, Q9C0E4 (Q9C0E4 544-642): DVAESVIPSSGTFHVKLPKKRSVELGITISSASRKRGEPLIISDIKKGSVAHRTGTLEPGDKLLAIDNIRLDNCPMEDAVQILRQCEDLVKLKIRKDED
Sequence of GIPC2, Q8TF65 (Q8TF65 112-203): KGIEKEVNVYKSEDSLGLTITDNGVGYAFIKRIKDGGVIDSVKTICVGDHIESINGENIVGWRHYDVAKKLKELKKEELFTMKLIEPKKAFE
Sequence of SCRIB_1, Q14160 (Q14160 718-814): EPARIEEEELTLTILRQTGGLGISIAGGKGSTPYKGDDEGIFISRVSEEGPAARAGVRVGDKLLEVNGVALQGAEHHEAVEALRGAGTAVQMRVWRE
Sequence of FRMPD2_2, Q68DX3 (Q68DX3 944-1038): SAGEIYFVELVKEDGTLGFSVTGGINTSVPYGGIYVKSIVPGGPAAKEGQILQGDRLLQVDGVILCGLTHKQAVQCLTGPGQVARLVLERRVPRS
Sequence of NOS1, P29475 (P29475 9-101): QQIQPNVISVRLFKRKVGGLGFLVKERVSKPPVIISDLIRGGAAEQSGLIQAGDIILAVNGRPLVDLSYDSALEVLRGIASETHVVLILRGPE
Sequence of PDLIM1, O00151 (O00151 1-87): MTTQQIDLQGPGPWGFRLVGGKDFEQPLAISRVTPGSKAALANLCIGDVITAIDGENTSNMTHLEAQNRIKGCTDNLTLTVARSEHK
Sequence of IL16_4, Q14005 (Q14005 1229-1329): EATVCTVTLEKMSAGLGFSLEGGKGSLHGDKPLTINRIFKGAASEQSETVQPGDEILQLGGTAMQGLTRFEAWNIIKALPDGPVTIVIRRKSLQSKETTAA

| Binder | pKd (IL16_4, Q14005) | pKd (DLG3_2, Q92796) | pKd (SNTG2, Q9NY99) | pKd (PTPN3, P26045) | pKd (MPP2, Q14168) | pKd (FRMPD2_2, Q68DX3) | pKd (GRIP2_5, Q9C0E4) | pKd (LNX2_3, Q8N448) | pKd (TJP2_1, Q9UDY2) | pKd (CARD11, Q9BXL7) | pKd (PDLIM1, O00151) | pKd (SCRIB_1, Q14160) | pKd (NHERF4_1, Q86UT5-2) | pKd (SCRIB_3, Q14160) | pKd (GRIP2_7, Q9C0E4) | pKd (GRIP2_4, Q9C0E4) | pKd (GIPC2, Q8TF65) | pKd (DLG3_3, Q92796) | pKd (SIPA1L2, Q9P2F8) | pKd (GRIP1_2, Q9Y3R0) | further results |
| --- | --- | --- | --- | --- | --- | --- | --- | --- | --- | --- | --- | --- | --- | --- | --- | --- | --- | --- | --- | --- | --- |
| REKKFFCTIL [GNG4, P50150] | 3.49 | 4.13 | 4.35 | 4.47 | 4.01 | below the threshold | below the threshold | below the threshold | 4.93 | 3.54 | below the threshold | 5.33 | 4.56 | 4.91 | below the threshold | below the threshold | below the threshold | 4.38 | 4.01 | 4.1 | pKd (NOS1, P29475): 3.81; pKd (MPP6, Q9NZW5): below the threshold; pKd (RHPN1, Q8TCX5): 4.48; pKd (ARHGEF12, Q9NZN5-2): 5.87; pKd (MPP7, Q5T2T1): 3.49; pKd (Inadl_4, Q8NI35): below the threshold |
| RRLQGTSSMV [GOLT1A, Q6ZVE7] | below the threshold | 4.67 | below the threshold | 3.99 | below the threshold | below the threshold | below the threshold | below the threshold | 3.59 | below the threshold | below the threshold | below the threshold | below the threshold | below the threshold | below the threshold | below the threshold | below the threshold | below the threshold | below the threshold | below the threshold | pKd (NOS1, P29475): 3.77; pKd (MPP6, Q9NZW5): below the threshold; pKd (RHPN1, Q8TCX5): 3.58; pKd (ARHGEF12, Q9NZN5-2): 3.81; pKd (MPP7, Q5T2T1): below the threshold; pKd (Inadl_4, Q8NI35): below the threshold |
| VRPGVKESLV [SCN4A, P35499] | below the threshold | 5 | 4.77 | 4.78 | below the threshold | 3.91 | below the threshold | below the threshold | below the threshold | below the threshold | below the threshold | 4.48 | 3.76 | 4.34 | below the threshold | below the threshold | below the threshold | 4.1 | below the threshold | below the threshold | pKd (NOS1, P29475): 3.97; pKd (MPP6, Q9NZW5): 3.67; pKd (RHPN1, Q8TCX5): 4.33; pKd (ARHGEF12, Q9NZN5-2): below the threshold; pKd (MPP7, Q5T2T1): below the threshold; pKd (Inadl_4, Q8NI35): below the threshold |
| RDFDYIADWC [PKN2, Q16513] | below the threshold | 4.16 | below the threshold | 3.85 | 3.49 | below the threshold | below the threshold | below the threshold | 4.48 | below the threshold | below the threshold | below the threshold | 4.34 | 3.49 | below the threshold | below the threshold | below the threshold | below the threshold | below the threshold | 3.7 | pKd (NOS1, P29475): 4.12; pKd (MPP6, Q9NZW5): below the threshold; pKd (RHPN1, Q8TCX5): below the threshold; pKd (ARHGEF12, Q9NZN5-2): below the threshold; pKd (MPP7, Q5T2T1): below the threshold; pKd (Inadl_4, Q8NI35): below the threshold |
| TGPWKNETTV [ADGRA1, Q86SQ6] | below the threshold | 5.01 | 4.26 | 4.76 | below the threshold | 3.57 | below the threshold | below the threshold | below the threshold | below the threshold | below the threshold | 4.34 | below the threshold | 4.69 | below the threshold | below the threshold | 4.24 | 4.48 | below the threshold | below the threshold | pKd (NOS1, P29475): below the threshold; pKd (MPP6, Q9NZW5): below the threshold; pKd (RHPN1, Q8TCX5): 4.55; pKd (ARHGEF12, Q9NZN5-2): 4.05; pKd (MPP7, Q5T2T1): below the threshold; pKd (Inadl_4, Q8NI35): below the threshold |
| ALPLPQSSTC [IGF1R, P08069] | below the threshold | 4.22 | below the threshold | below the threshold | below the threshold | below the threshold | below the threshold | below the threshold | below the threshold | below the threshold | below the threshold | 3.8 | 3.88 | below the threshold | below the threshold | below the threshold | below the threshold | below the threshold | below the threshold | below the threshold | pKd (NOS1, P29475): below the threshold; pKd (MPP6, Q9NZW5): below the threshold; pKd (RHPN1, Q8TCX5): 3.58; pKd (ARHGEF12, Q9NZN5-2): 4.95; pKd (MPP7, Q5T2T1): below the threshold; pKd (Inadl_4, Q8NI35): below the threshold |
